According to US12514920B1, “Respiratory syncytial virus mRNA vaccine, and preparation method therefor and use thereof” (Hangzhou Tianlong Pharmaceutical Co., Ltd., priority 2024, dated 2026):

Legend:
[1] = system: RSV pre-F antibody (3C12); test: Binding of epitope Φ of RSV F antigen mutants by flow cytometry; details: for RSV pre-F antibody (3C12) Epitope Φ (%) binding rate: flow cytometry; for Φ/II (%): ratio of epitope Φ (3C12) to epitope II (11A9) binding rate
Outline: (§1)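 293T cells were transfected with mRNA-LNP (300 ng mRNA) encoding the RSV F mutants and harvested after 16 h. Cells were stained with fluorescent 3C12 (pre-F-specific epitope Φ) or 11A9 (epitope II, pre-F and post-F) for 2 h at 4 °C in the dark, then washed and read by flow cytometry on 1×10^4 cells per measurement.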

RSV F antibody (11A9) = test: Binding of epitope II of RSV F antigen mutants by flow cytometry; details: epitope II, antibody 11A9
Outline: as §1

[2] = system: RSV pre-F antibody (3C12); assay type: physicochemical; details: ELISA binding to 3C12; for Stress resistance parameter, Osmotic pressure (mM) 3000: high osmotic pressure 3000 mM; for Stress resistance parameter, Osmotic pressure (mM) 3000 / Stress resistance parameter, Osmotic pressure (mM) 10: room temperature; for Stress resistance parameter, Osmotic pressure (mM) 3000 / Stress resistance parameter, Osmotic pressure (mM) 10 / Stress resistance parameter, pH 3.5 / Stress resistance parameter, pH 10: 60 min; for Stress resistance parameter, Temperature (° C.) 50: incubation at 50° C. for 60 min; for Stress resistance parameter, Osmotic pressure (mM) 10: low osmotic pressure 10 mM; for Stress resistance parameter, pH 3.5: pH 3.5, room temperature; for Stress resistance parameter, pH 10: pH 10, room temperature; for Stress resistance parameter, Temperature (° C.) 4: storage at 4° C. for one week
Outline: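 RSV F mRNA-vaccine mutants stress-treated: 4° C. for one week, 50° C. for 60 min, low or high osmotic pressure at room temperature for 60 min, acid or base at room temperature for 60 min. Binding to 3C12 (epitope Φ) then measured by ELISA against pre-F trimer standard, HRP anti-human IgG, OD 450/630 nm.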

Molecule | RSV pre-F antibody (3C12) Epitope Φ (%) binding rate [1] [%] | Φ/II (%) [1] [%] | RSV F antibody (11A9) Epitope II (%) binding rate (RSV F antibody (11A9)) [%] | Stress resistance parameter, Osmotic pressure (mM) 3000 [2] | Stress resistance parameter, Temperature (° C.) 50 [2] | Stress resistance parameter, Osmotic pressure (mM) 10 [2] | Stress resistance parameter, pH 3.5 [2] | Stress resistance parameter, pH 10 [2] | Stress resistance parameter, Temperature (° C.) 4 [2]
YK-RSV-052 (protein) QNITEEFYQSTCSAVSKGYLGALRTGWYTSVITIELSNIKENKCNGTDAKVKLIKQELDKYKNAVTDLQLLMQSTPATGSGCAIASGVAVSKVLHLEGEVNKIKSALLSTNKAVVSLSNGVSVLTFKVLDLKNYIDKQLLPILNKQSCSIPNIETVIEFQQKNNRLLEITREFSVNAGVTTPVSTYMLTNSELLSLINDMPITNDQKKLMSNNVQIVRQQSYSIMSIIKEEVLAYVVQLPCYGVIDTPCWKLHTSPLCTTNTKEGSNICLTRTDRGWYCDNAGSVSFFPQAETCKVQSNRVFCDTMNSRTLPSEVNLCNVDIFNPKYDCKIMTSKTDVSSSVITSLGAIVSCYGKTKCTASNKNRGIIKTFSNGCDYVSNKGVDTVSVGNTLYYVNKQEGQSLYVKGEPIINFYDPLVFPSDEFDASISQVNEKINQSLAFIRKSDELLHNVNAGKSTTNIMITTIIIVIIVILLSLIAVGLLLY | 89.4 | 95.4 | 93.7 | 0.30 ± 0.06 | 0.69 ± 0.09 | 0.88 ± 0.21 | 0.80 ± 0.04 | 1.22 ± 0.14 | 0.42 ± 0.10
YK-RSV-059 (protein) QNITEEFYQSTCSAVSKGYLGALRTGWYTSVITIELSNIKENKCNGTDAKVKLIKQELDKYKNAVTDLQLLMQSTPATGSGSAIASGVAVSKVLHLEGEVNKIKSALLSTNKAVVSLSNGVSVLTFKVLDLKNYIDKQLLPILNKQSCSIPNIETVIEFQQKNNRLLEITREFSVNAGVTTPVSTYMLTNSELLSLINDMPITNDQKKLMSNNVQIVRQQSYSIMSIIKEEVLAYVVQLPLYGVIDTPCWKLHTSPLCTTCTKEGSNICLTRTDRGWYCDNAGSVSFFPQAETCKVQSNRVFCDTMNSRTLPSEVNLCNVDIFNPKYDCKIMTSKTDVSSSVITSLGAIVSCYGKTKCTASNKNRGIIKTFSNGCDYVSNKGVDTVSVGNTLYYVNKQEGQSLYVKCEPIINFYDPLVFPSDEFDASISQVNEKINQSLAFIRKSDELLHNVNAGKSTTNIMITTIIIVIIVILLSLIAVGLLLY | 83.1 | 92.5 | 89.8 | 0.44 ± 0.03 | 0.74 ± 0.07 | 0.49 ± 0.02 | 0.73 ± 0.03 | 0.82 ± 0.09 | 0.52 ± 0.10
YK-RSV-002 (protein) QNITEEFYQSTCSAVSKGYLGALRTGWYHSVITIELSNIKENKCNGTDAKVKLIKQELDKYKNAVTDLQLLMQSTPATGSGSAICSGVAVCKVLHLEGEVNKIKSALLSTNKAVVSLSNGVSVLTFKVLDLKNYIDKQLLPIVNKQSCSIPNIETVIEFQQKNNRLLEITREFSVNAGVTTPVSTYMLTNSELLSLINDMPITNDQKKLMSNNVQIVRQQSYSIMCIIKEEVLAYVVQLPLYGVIDTPCWKLHTSPLCTTNTKEGSNICLTRTDRGWYCDNAGSVSFFPQAETCKVQSNRVFCDTMNSRTLPSEVNLCNVDIFNPKYDCKIMTSKTDVSSSVITSLGAIVSCYGKTKCTASNKNRGIIKTFSNGCDYVSNKGVDTVSVGNTLYCVNKQEGQSLYVKGEPIINFYDPLVFPSSEFDASISQVNEKINQSLAFIRKSDELLHNVNAGKSTTNIMITTIIIVIIVILLSLIAVGLLLY | 88.0 | 94.1 | 93.5 | 0.44 ± 0.13 | 0.46 ± 0.06 | 0.84 ± 0.14 | 0.65 ± 0.08 | 0.97 ± 0.14 | 0.61 ± 0.11
YK-RSV-058 (protein) QNITEEFYQSTCSAVSKGYLGALRTGWYTSVITIELSNIKENKCNGTDAKVKLIKQELDKYKNAVTDLQLLMQSTPATGSGSAIASGVAVSKVLHLEGEVNKIKSALLSTNKAVVSLSNGVSVLTFKVLDLKNYIDKQLLPILNKQSCSIPNIETVIEFQQKNNRLLEITREFSVNAGVTTPVSTYMLTNSELLSLINDMPITNDQKKLMSNNVQIVRQQSYSIMSIIKEEVLAYVVQLPLYGVIDTPCWKLHTSPLCTTNTKEGCNICLTRTDRGWYCDNAGSVSFFPQAETCKVQSNRVFCDTMNSRTLPSEVNLCNVDIFNPKYDCKIMTSKTDVSSSVITSLGAIVSCYGKTKCTASNKNRGIIKTFSNGCDYVSNKGVDTVSVGNTLYYVNKQEGQSLYVKCEPIINFYDPLVFPSDEFDASISQVNEKINQSLAFIRKSDELLHNVNAGKSTTNIMITTIIIVIIVILLSLIAVGLLLY | 81.2 | 91.5 | 88.7 | 0.50 ± 0.05 | 0.73 ± 0.09 | 0.60 ± 0.04 | 0.72 ± 0.03 | 0.81 ± 0.05 | 0.36 ± 0.07
YK-RSV-046 (protein) QNITEEFYQSTCSAVSKGYLGALRTGWYTSVITIELSNIKENKCNGTDAKVKLIKQELDKYKNAVTDLQLLMQSTPATGSGSFCGFLLGVGSAIASGVAVSKVLHLEGEVNKIKSALLSTNKAVVSLSNGVSVLTFKVLDLKNYIDKQLLPILNKQSCSIPNIETVIEFQQKNNRLLEITREFSVNAGVTTPVSTYMLTNSELLSLINDMPITNDQKKLMSNNVQIVRQQSYSIMSIIKEEVLAYVVQLPLYGVIDTPCWKLHTSPLCTTNTKEGSNICLTRCDRGWYCDNAGSVSFFPQAETCKVQSNRVFCDTMNSRTLPSEVNLCNVDIFNPKYDCKIMTSKTDVSSSVITSLGAIVSCYGKTKCTASNKNRGIIKTFSNGCDYVSNKGVDTVSVGNTLYYVNKQEGQSLYVKGEPIINFYDPLVFPSDEFDASISQVNEKINQSLAFIRKSDELLHNVNAGKSTTNIMITTIIIVIIVILLSLIAVGLLLY | 84.0 | 93.5 | 89.8 | 0.41 ± 0.02 | 0.63 ± 0.03 | 0.46 ± 0.14 | 0.83 ± 0.04 | 1.03 ± 0.03 | 0.24 ± 0.07
YK-RSV-051 (protein) QNITEEFYQSTCSAVSKGYLGALRTGWYTSVITIELSNIKENKCNGTDAKVKLIKQELDKYKNAVTDLQLLMQSTPATGSGSFLGCLLGVGSAIASGVAVSKVLHLEGEVNKIKSALLSTNKAVVSLSNGVSVLTFKVLDLKNYIDKQLLPILNKQSCSIPNIETVIEFQQKNNRLLEITREFSVNAGVTTPVSTYMLTNSELLSLINDMPITNDQKKLMSNNVQIVRQQSYSIMSIIKEEVLAYVVQLPLYGVIDTPCWKLHTSPLCTTNTKEGSNICLTRTDRGWYCDNAGSVSFFPQAETCKVQSNRVFCDCMNSRTLPSEVNLCNVDIFNPKYDCKIMTSKTDVSSSVITSLGAIVSCYGKTKCTASNKNRGIIKTFSNGCDYVSNKGVDTVSVGNTLYYVNKQEGQSLYVKGEPIINFYDPLVFPSDEFDASISQVNEKINQSLAFIRKSDELLHNVNAGKSTTNIMITTIIIVIIVILLSLIAVGLLLY | 76.8 | 88.2 | 87.1 | 0.44 ± 0.00 | 0.60 ± 0.08 | 0.51 ± 0.13 | 0.69 ± 0.14 | 1.00 ± 0.17 | 0.33 ± 0.05
